The values that follow come from the DeepSol protein solubility set.

A short description of this data set: soluble on expression in E. coli; label from the status in PepcDB or PDB records.
In the case of “MAHHHHHHQTQTPSQLLQSFTTRTTDYNQLINSVGINAITPQQIQRIEKLSGKAPHHYLSRGVFLAEKSLDKFLDDVEAKKPTFIFIQKYPQKEVALEEYITLEFARYLQDAFNIQVIIQILDDIKVLNREATINEASKMSNDLMKYILAFGFNEDKTFIYTDYQYFGKMYRTISLVEKATAYNVVQPFFNFEYSDNIGKLASPSIMTASMFSQSYSHFFSSPARCLVLDSIKNVQFHSIIDQIATTLNFIQPTVLFHKMVPLLSGVTKFDIPSDHNSILLSDNAKQVERKINKLAFSGGRNTTEEHKKLGGQCDIDVSFQLLNIFSSDNAQVKDVEEKYSKGELLSGELKKIVSASMKDFIVAYDAKKKPITTAYLKAYISKTKF”, the “soluble on expression in E. coli” value is on record as “soluble”.
With “MKTFKLVGLSVIDDDMHRQDIPFIDGLIINKEDGQNRWLVEAYLDDDYEPMFVSLQRRPEFQLQVTITHTSNDPANMLVTVRSITKMNGHISVLMEGLMIPRRTHLAEVVLAGLVKKGLQGEALLQEFRQQMHERIDAKAPQERKR”, the “soluble on expression in E. coli” value is listed as “not soluble”.
On to “MMIDPELRPAFLPAGKLRAAINLGNPILAGTDAAGQAVGVSVDLAREFARRLNAGIELRVFDTAGQSVDAVTREEADIGFFAIDPARGAGIAFTGPYVLIEGAYLVRDDSPLQANEDVDRAGKRVTVGKGSAYDLHLTRALQHAEIVRAASSQAVVDTFLARRLDVAAGVKQQLQADARRVGGVRLLPGRFMVIRQAMGLPKARGDAAAACLDAFVESMKGNGFVAQALARHGLEHHHHHH”, for which the “soluble on expression in E. coli” value is reported as “not soluble”.
As for “MFEITRPPGVRAHVGVIGGSGLYDPGIVENPVEVKVSTPYGNPSDFIVVGDVAGVKVAFLPRHGRGHRIPPHAINYRANIWALKALGVKWVISVSAVGSLREDYRPGDFVVPDQFIDMTKNRRHYTFYDGPVTVHVSMADPFCEDLRQRLIDSGRRLGYTVHERGTYVCIEGPRFSTRAESRVWKDVFKADIIGMTLVPEINLACEAQLCYATLAMVTDYDVWADRPVTAEEVERVMISNVERARRMLYDVIPKLAGEPELERCSCCRALDTAAI”, the “soluble on expression in E. coli” value was “soluble”.
Take “GSMGDTKEQRILRYVQQNAKPGDPQSVLEAIDTYCTQKEWAMNVGDAKGQIMDAVIREYSPSLVLELGAYCGYSAVRMARLLQPGARLLTMEMNPDYAAITQQMLNFAGLQDKVTILNGASQDLIPQLKKKYDVDTLDMVFLDHWKDRYLPDTLLLEKCGLLRKGTVLLADNVIVPGTPDFLAYVRGSSSFECTHYSSYLEYMKVVDGLEKAIYQGPSSPDKS”: the “soluble on expression in E. coli” value is “soluble”.
For the sequence “GPNANPIPEHFFAPYIDMSLSVHKPLVEYAKLTGTKYFTLAFILYSSVYNGPAWAGSIPLEKFVDEVRELREIGGEVIIAFGGAVGPYLCQQASTPEQLAEWYIKVIDTYNATYLDFDIAAGIDADKLADALLIVQRERPWVKFSFTLPSDPGIGLAGGYGIIETMAKKGVRVDRVNPMTMDYYWTPSNAENAIKVAENVFRQLKQIYPEKSDEEIWKMIGLTPMIGVNDDKSVFTLEDAQQLVDWAIQHKIGSLAFWSVDRDHPGPTGEVSPLHRGTNDPDWAFSHVFVKFMEAFGYTFSAQTSEASVPT”, the “soluble on expression in E. coli” value was “soluble”.
In the case of “MGSDKIHHHHHHMIEVEIDKDSGFCFGVVTAIESAERELGNTDTLYCLGDIVHNSLEVERLEHMGLHTIDHEGLSRLRDRKVLLRAHGEPPSTYALAKRNNITIIDATCPVVLRLQRKIHKCYQETRANNTQLVIYGKKGHAEVNGLVGQTEGTAIVIEKIEDLDRLDFTRAISLFSQTTKSLDGFKAVVAEIKQRMAEGVEFNYYDTICRQVANRLPNIKAFASSHDWVYFVAGRKSSNGKMLFEECRKANPNTLFISEVSEITEPLPEGVRRVGVCGATSTPKWLMEEVAVRIKELNASE”, the “soluble on expression in E. coli” value is listed as “not soluble”.
On to “MKIAVLGATGRAGSAIVAEARRRGHEVLAVVRDPQKAADRLGATVATLVKEPLVLTEADLDSVDAVVDALSVPWGSGRGYLHLDFATHLVSLLRNSDTLAVFILGSASLAMPGADHPMILDFPESAASQPWYDGALYQYYEYQFLQMNANVNWIGISPSEAFPSGPATSYVAGKDTLLVGEDGQSHITTGNMALAILDQLEHPTAIRDRIVVRLEHHHHHH”, for which the “soluble on expression in E. coli” value is listed as “not soluble”.
“MCFINLRSVADTINTQTRRITMFTYYQAENSTAEPALVNAIEQGLRAQHGVVTEDDILMELTKWVEASDNDILSDIYQQTINYVVSGQHPTLLEHHHHHH”: the “soluble on expression in E. coli” value is on record as “not soluble”.
Consider “MISKTSILLLGFACAAVGANYIESAIFKFDDSCEPLEEPRKPEVAKCYEPSTSLPKTLEEYRAMGYDWGEFVHDDKADQAPEGLDEVFTYPMVPFIGMSLLASKKF”, for which the “soluble on expression in E. coli” value is reported as “not soluble”.
Consider “MGSDKIHHHHHHMKLLEVKGLKKYFPLTKGFFKKVVGYVRAVDDVSFDIKQGETLALVGESGCGKTTTAKSILRAIDPTDGDVILHLDGKDVNIAKLSRDELKPYRRYMQMIFQNPYTSLNPRMKVKEIVGEPLLVNGIAKGKELEDRVAELLKAVGLRPEYMIRYPHAFSGGQRQRIVIARAIALRPKLVVCDEPTSALDVSIRAQILNLLMDLQEEFALTYLFITHDLSVVEHISDRVAVMYLGKIVELSSTEEIFENPKHPYTETLLRSVPKPDPDLREELVPIEGEVPNPANPPSGCYFHPRCPYAKSICKEEYPEFRNLGTEDNPHYVACHFAESLKLRGVKITL”, for which the “soluble on expression in E. coli” value was “not soluble”.
The result for “MSLHVKVIVFGGSGFLGSHLVNRLDADEMVYFSLEKGNSVTRKDAKWVSGDVTDYSKVAEAMKDVDVAIFAVEDWNADEKRNREILLDGIKNVVNAVKANNTEQKVVSFSIINHPSYPLEFFRTKRLVEDNTRVLKNGLVVRLSFLFGEGDHFTDRFRKLSERVGHLSPEGNLAPVYVDDVVKVVNSILKREGVYDICSNDNLPLIKIVNYIRKMNGKKEIGETKLEKAISAVVETGLFAEYEAHLLFQDYYRETNILDRYVKDPLSYLDFLRGISVTHTTEGHHHHHH” reads “soluble”.
On to “MGHHHHHHSHDDVIDKTLNYTRRKSNDIVYIGSLSKDKGVDILLELVKTFTKNGNDTIIHIVGKGLLYEKIFERIGEINKRVIYYGPQPLKRALQIASRASLGVVLTRPSYESLTTDPMKPKVYLAAHTPVILPEYFEISSYVNRFKAGMVVGKLKPSYILSKVKVALEDSNTLLKGAERLAKS”, for which the “soluble on expression in E. coli” value is “not soluble”.
The result for “MTIEKEIEGLIHKTNKDLLNENANKDSRVFPTQRDLMAGIVSKHIAKNMVPSFIMKAHESGIIHVHDIDYSPALPFTNCCLVDLKGMLENGFKLGNAQIETPKSIGVATAIMAQITAQVASHQYGGTTFANVDKVLSPYVKRTYAKHIEDAEKWQIADALNYAQSKTEKDVYDAFQAYEYEVNTLFSSNGQTPFVTITFGTGTDWTERMIQKAILKNRIKGLGRDGITPIFPKLVMFVEEGVNLYKDDPNYDIKQLALECASKRMYPDIISAKNNKAITGSSVPVSPMGCRSFLSVWKDSTGNEILDGRNNLGVVTLNLPRIALDSYIGTQFNEQKFVELFNERMDLCFEALMCRISSLKGVKATVAPILYQEGAFGVRLKPDDDIIELFKNGRSSVSLGYIGIHELNILVGRDIGREILTKMNAHLKQWTERTGFAFSLYSTPAENLCYRFCKLDTEKYGSVKDVTDKGWYTNSFHVSVEENITPFEKISREAPYHFIATGGHISYVELPDMKNNLKGLEAVWDYAAQHLDYFGVNMPVDKCFTCGSTHEMTPTENGFVCSICGETDPKKMNTIRRTCAYLGNPNERGFNLGKNKEIMHRVKHQ” reads “soluble”; that for “MGSDKIHHHHHHMELIEILLKKLNKNAVVTEIAKDKDPFKVLISTIISARTKDEVTEEVSKKLFKEIKDVDDLLNIDEEKLADLIYPAGFYKNKAKNLKKLAKILKENYNGKVPDSLEELLKLPGVGRKTANLVITLAFNKDGICVDTHVHRICNRWEIVDTETPEETEFELRKKLPKKYWKVINNLLVVFGREICSSKSKCDKCFKEIKEKCPYYEKIKHFENILKKFNFRKVSKNKIPNEKGTYILKIRLKEGKKIKFGKTERFFKKGYYFYIGSAFGNSMNLKNRIERHLKDDKKMHWHIDYLLKYGKIEEIYITNERVECEVANEFIKKFDFVENFGCSDCKCKSHLFYLKP”, “not soluble”; that for “MGKSELSGRLNWQALAGLKASGAEQNLYNVFNAVFEGTKYVLYEKPKHLKNLYAQVVLPDDVIKEIFNPLIDLSTTQWGVSPAFAIENTETHKILFGEIKRQDGWVEGKDPSAGRGNAHERSCKLFTPGLLKAYRTIGGINDEEILPFWVVFEGDITRDPKRVREITFWYDHYQDNYFMWRPNESGEKLVQHFNEKLKKYLD”, “soluble”.
The result for “MSKVPVVGIVAALLPEMGIGFQGNLPWRLAKEMKYFREVTTLTNDNSKQNVVIMGRKTWESIPQKFRPLPKRINVVVSRSFDGELRKVEDGIYHSNSLRNCLTALQSSLANENKIERIYIIGGGEIYRQSMDLADHWLITKIMPLPETTIPQMDTFLQKQELEQRFYDNSDKLVDFLPSSIQLEGRLTSQEWNGELVKGLPVQEKGYQFYFTLYTKKLEHHHHHHHH” reads “soluble”.
On to “KAFTPDEAARFYAAARADRWGWPLAFMLATGLRPGEALGLTWADVTMRGSAEGGTLAAVVHIERTRSVSGGRVYEDTPKTERGRRSLTVTGDAARLLLDARAQAEREAGARLRHNGREYQSTGYVFVTRAGTPYRPDNLRRPMARLCQAVGVPVLTPHKLRHTWASVQAAAGVPVEVLSAELGHAAPSFTRDTYRHVYESERASLTYDPLTPAAAPAPEPEPQGRKRV”, for which the “soluble on expression in E. coli” value was “not soluble”.
In the case of “MTRHQTHLPFHIVQEGNSIDKPPYSYVALIAMAIDASPDKRMTLNQIYKFIEAKFPYYRDADAKRKQGWQNSIRHNLSLNDCFVKKARDGQSCANDRKGNYWQMVADNAPQFDNGNFKRRRVKRLGIGKMGYANTTETTETGTILQQQLPFFNGLKWPQNIQTMDPFQFFKFQYPNSITDSANTSQINNSSSSSSSFDTSIYTSAFPIPTSHFDTNLVAPSQPPPVVSDVEVVPSDTVKEEVLVDMKPLIPGISSTTFLTSLQMTDPRSIEQQQLLSTASNMYPNAFMPPYTNWSCQPTTTFTGLSFDDPSLYGYGQQFPASS”, the “soluble on expression in E. coli” value was “not soluble”.
For the sequence “MSSKWITSLFKSVVLTAALVTPFAASAFTEGTDYMVLEKPIPNADKTLIKVFSYACPFCYKYDKAVTGPVSDKVADLVTFTPFHLETKGEYGKQASEVFAVLIAKDKAAGISLFDAKSQFKKAKFAWYAAYHDKKERWSDGKDPAAFIKTGLDAAGMSQADFEAALKDPAVQETLEKWKAAYDVAKIQGVPAYVVNGKYLIYTKNIKSIDSMAELVRELATKK”, the “soluble on expression in E. coli” value is “not soluble”.
Turning to “MSDSPKNAPRITDEADVVLIGAGIMSSTLGAMLRQLEPSWTQIVFERLDGPAQESSSPWNNAGTGHSALCELNYTPEVKGKVEIAKAVGINEKFQVSRQFWSHLVEEGVLSDPKEFINPVPHVSFGQGADQVAYIKARYEALKDHPLFQGMTYADDEATFTEKLPLMAKGRDFSDPVAISWIDEGTDINYGAQTKQYLDAAEVEGTEIRYGHEVKSIKADGAKWIVTVKNVHTGDTKTIKANFVFVGAGGYALDLLRSAGIPQVKGFAGFPVSGLWLRCTNEELIEQHAAKVYGKASVGAPPMSVPHLDTRVIEGEKGLLFGPYGGWTPKFLKEGSYLDLFKSIRPDNIPSYLGVAAQEFDLTKYLVTEVLKDQDKRMDALREYMPEAQNGDWETIVAGQRVQVIKPAGFPKFGSLEFGTTLINNSEGTIAGLLGASPGASIAPSAMIELLERCFGDRMIEWGDKLKDMIPSYGKKLASEPALFEQQWARTQKTLKLEEALEHHHHHH”, the “soluble on expression in E. coli” value is reported as “not soluble”.
For “EPNRLIKEKSPYLLQHAYNPVDWYPWGEEAFEKARKENKPVFLSIGYSTCHWCHMMAHESFEDEEVAGLMNEAFVSIKVDREERPDIDNIYMTVCQIILGRGGWPLNIIMTPGKKPFFAGTYIPKNTRFNQIGMLELVPRIKEIWEQQHEEVLDSAEKITSTIQEMIKESSG”, the “soluble on expression in E. coli” value is given as “soluble”.
